{
  "source": "patent US20240361334A1",
  "key": {"[1]": {"biological_target": "human C1q protein (Sigma-Aldrich #C1740) (human) (UniProt P02745)", "assay": "HTRF sandwich, biotin-anti-human Fab 1/SA-d2, Eu-anti-C1q, buffer 1"}, "[2]": {"biological_target": "human C1q protein (Sigma-Aldrich #C1740) (human) (UniProt P02745)", "assay": "HTRF sandwich, biotin-anti-human Fab 1/SA-d2, Eu-anti-C1q, 155 mM NaCl"}, "[3]": {"biological_target": "human C1q protein (Sigma-Aldrich #C1740) (human) (UniProt P02745)", "assay": "HTRF sandwich, biotin-anti-human Fab 1/SA-d2, Eu-anti-C1q, 135 mM NaCl"}, "[4]": {"biological_target": "Human myeloma IgG1 purified from human plasma (Sigma-Aldrich #I5154)", "assay": "HTRF saturation binding, anti-Fab-d2 on Eu cryptate-IgG"}, "[5]": {"biological_target": "Human myeloma IgG4 purified from human plasma (Sigma-Aldrich #I4764)", "assay": "HTRF saturation binding, anti-Fab-d2 on Eu cryptate-IgG"}, "[6]": {"biological_target": "Human myeloma IgG1 purified from human plasma (Sigma-Aldrich #I5154)", "assay": "HTRF saturation binding, biotin-anti-Fab/SA-d2 on Eu cryptate-IgG"}, "[7]": {"biological_target": "Human myeloma IgG2 purified from human plasma (Sigma-Aldrich #I5404)", "assay": "HTRF saturation binding, biotin-anti-Fab/SA-d2 on Eu cryptate-IgG"}, "[8]": {"biological_target": "Human myeloma IgG4 purified from human plasma (Sigma-Aldrich #I4764)", "assay": "HTRF saturation binding, biotin-anti-Fab/SA-d2 on Eu cryptate-IgG"}, "[9]": {"biological_target": "human C1q protein (Sigma-Aldrich #C1740) (human) (UniProt P02745)", "assay": "HTRF sandwich, biotin-anti-human Fab 1/SA-d2, Tb cryptate-C1q"}, "[10]": {"biological_target": "human C1q protein (Sigma-Aldrich #C1740) (human) (UniProt P02745)", "assay": "HTRF sandwich, 40 nM biotin-anti-human Fab 1/SA-d2, Eu-anti-C1q, buffer 2"}, "[11]": {"biological_target": "human C1q protein (Sigma-Aldrich #C1740) (human) (UniProt P02745)", "assay": "HTRF sandwich, 50 nM biotin-anti-human Fab 1/SA-d2, Eu-anti-C1q, buffer 2"}, "[12]": {"biological_target": "human C1q protein (Sigma-Aldrich #C1740) (human) (UniProt P02745)", "assay": "HTRF sandwich, 30 nM biotin-anti-human Fab 1/SA-d2, Eu-anti-C1q, buffer 2"}, "[13]": {"biological_target": "human C1q protein (Sigma-Aldrich #C1740) (human) (UniProt P02745)", "assay": "AlphaLISA sandwich, biotin-anti-human Fab 1/streptavidin donor beads, anti-C1q acceptor beads"}, "[14]": {"biological_target": "human C1q protein (Sigma-Aldrich #C1740) (human) (UniProt P02745)", "assay": "HTRF sandwich, anti-human Fab 2-d2 without streptavidin, Eu-anti-C1q"}, "[15]": {"biological_target": "human C1q protein (Sigma-Aldrich #C1740) (human) (UniProt P02745)", "assay": "HTRF sandwich, biotin-anti-human Fab 2/SA-d2, Eu-anti-C1q"}, "[16]": {"biological_target": "human C1q protein (Sigma-Aldrich #C1740) (human) (UniProt P02745)", "assay": "HTRF sandwich, biotin-anti-human Fab 1/SA-d2, Eu-anti-C1q, buffer 2"}, "[17]": {"biological_target": "human C1q protein (Sigma-Aldrich #C1740) (human) (UniProt P02745)", "assay": "HTRF sandwich, biotin-Protein L/SA-d2, Eu-anti-C1q"}, "[18]": {"biological_target": "human C1q protein (Sigma-Aldrich #C1740) (human) (UniProt P02745)", "assay": "HTRF sandwich, biotin-anti-human Fab 1/SA-d2, Eu-anti-C1q, buffer 2, with 150 nM human TNF-α"}},
  "data": [
    {"substance": "Non-glycosylated Cetuximab (InvivoGen #hegfr-mab12) (antibody)", "values": [
      {"measurement": "EC50", "setting": "[1]", "result": 10.2, "unit": "nM"},
      {"measurement": "S/B", "setting": "[1]", "result": 1.4}
    ]},
    {"substance": "Ipilimumab IgG2 isotype (InvivoGen #hctla4-mab2) (from UniProt P01859 1-326) (antibody)", "values": [
      {"measurement": "EC50", "setting": "[1]", "result": 53.3, "unit": "nM"}
    ]},
    {"substance": "Obinutuzumab (antibody)", "values": [
      {"measurement": "EC50", "setting": "[1]", "result": 18.6, "unit": "nM"},
      {"measurement": "EC50", "setting": "[2]", "result": 19.7, "unit": "nM"},
      {"measurement": "S/B", "setting": "[2]", "result": 1.6},
      {"measurement": "EC50", "setting": "[3]", "result": 18.6, "unit": "nM"}
    ]},
    {"substance": "Cetuximab IgG2 isotype (InvivoGen #hegfr-mab2) (from UniProt P01859 1-326) (antibody)", "values": [
      {"measurement": "EC50", "setting": "[1]", "result": 48, "unit": "nM"}
    ]},
    {"substance": "Anti-human Fab 1: anti-human IgG Fab, mouse IgG2b, monoclonal antibody, clone 4A11 (ThermoFisher Scientific #SA1-19255)", "values": [
      {"measurement": "Kd", "setting": "[4]", "result": 0.16, "unit": "nM"},
      {"measurement": "Kd", "setting": "[5]", "result": 0.44, "unit": "nM"},
      {"measurement": "Kd", "setting": "[6]", "result": 0.2, "unit": "nM"},
      {"measurement": "Kd", "setting": "[7]", "result": 0.37, "unit": "nM"},
      {"measurement": "Kd", "setting": "[8]", "result": 0.33, "unit": "nM"}
    ]},
    {"substance": "Non-glycosylated Rituximab (InvivoGen #hcd20-mab12) (antibody)", "values": [
      {"measurement": "EC50", "setting": "[1]", "result": 25, "unit": "nM"}
    ]},
    {"substance": "Anti-human Fab 2: anti-human IgG Fab, mouse IgG2b, monoclonal antibody, clone 2A11 (GeneTex #GTX27497)", "values": [
      {"measurement": "Kd", "setting": "[4]", "result": 0.2, "unit": "nM"},
      {"measurement": "Kd", "setting": "[5]", "result": 0.45, "unit": "nM"},
      {"measurement": "Kd", "setting": "[6]", "result": 0.26, "unit": "nM"},
      {"measurement": "Kd", "setting": "[7]", "result": 0.47, "unit": "nM"},
      {"measurement": "Kd", "setting": "[8]", "result": 0.4, "unit": "nM"}
    ]},
    {"substance": "Non-fucosylated Rituximab (InvivoGen #hcd20-mab13) (from UniProt P01857 1-330) (antibody)", "values": [
      {"measurement": "EC50", "setting": "[1]", "result": 16.2, "unit": "nM"}
    ]},
    {"substance": "Human IgG2 Isotype Control Recombinant Antibody (BioLegend #403602)", "values": [
      {"measurement": "EC50", "setting": "[1]", "result": 34, "unit": "nM"},
      {"measurement": "EC50", "setting": "[9]", "result": 73.6, "unit": "nM"},
      {"measurement": "EC50", "setting": "[10]", "result": 25.7, "unit": "nM"},
      {"measurement": "EC50", "setting": "[11]", "result": 30.6, "unit": "nM"},
      {"measurement": "EC50", "setting": "[12]", "result": 19.2, "unit": "nM"}
    ]},
    {"substance": "Rituximab (antibody)", "values": [
      {"measurement": "EC50", "setting": "[13]", "result": 26.8, "unit": "nM"},
      {"measurement": "EC50", "setting": "[1]", "result": 15.5, "unit": "nM"},
      {"measurement": "EC50", "setting": "[2]", "result": 28.9, "unit": "nM"},
      {"measurement": "EC50", "setting": "[9]", "result": 14.4, "unit": "nM"},
      {"measurement": "EC50", "setting": "[3]", "result": 15.5, "unit": "nM"},
      {"measurement": "EC50", "setting": "[14]", "result": 24, "unit": "nM"},
      {"measurement": "EC50", "setting": "[15]", "result": 11.7, "unit": "nM"}
    ]},
    {"substance": "Adalimumab (antibody)", "values": [
      {"measurement": "EC50", "setting": "[16]", "result": 7.2, "unit": "nM"},
      {"measurement": "EC50", "setting": "[15]", "result": 8, "unit": "nM"},
      {"measurement": "EC50", "setting": "[17]", "result": 69.8, "unit": "nM"}
    ]},
    {"substance": "Adalimumab (+150 nM TNF-α) (from UniProt P01375 77-233)", "values": [
      {"measurement": "EC50", "setting": "[18]", "result": 4.6, "unit": "nM"},
      {"measurement": "S/B", "setting": "[18]", "result": 6.9}
    ]},
    {"substance": "Human IgG1 Isotype Control Recombinant Antibody (BioLegend #403502)", "values": [
      {"measurement": "EC50", "setting": "[13]", "result": 23.7, "unit": "nM"},
      {"measurement": "S/B", "setting": "[13]", "result": 752},
      {"measurement": "EC50", "setting": "[1]", "result": 17.3, "unit": "nM"},
      {"measurement": "EC50", "setting": "[9]", "result": 13.7, "unit": "nM"}
    ]},
    {"substance": "Cetuximab (antibody)", "values": [
      {"measurement": "EC50", "setting": "[1]", "result": 16.9, "unit": "nM"}
    ]},
    {"substance": "Atezolizumab (antibody)", "values": [
      {"measurement": "EC50", "setting": "[1]", "result": 13.2, "unit": "nM"},
      {"measurement": "EC50", "setting": "[11]", "result": 10.9, "unit": "nM"},
      {"measurement": "EC50", "setting": "[12]", "result": 7.2, "unit": "nM"}
    ]},
    {"substance": "Rituximab IgG2 isotype (InvivoGen #hcd20-mab2) (from UniProt P01859 1-326) (antibody)", "values": [
      {"measurement": "EC50", "setting": "[1]", "result": 38.7, "unit": "nM"},
      {"measurement": "EC50", "setting": "[2]", "result": 37.6, "unit": "nM"},
      {"measurement": "EC50", "setting": "[3]", "result": 38.3, "unit": "nM"}
    ]},
    {"substance": "Ipilimumab (antibody)", "values": [
      {"measurement": "EC50", "setting": "[1]", "result": 13.2, "unit": "nM"}
    ]}
  ]
}
